In patent US20230080534A1 (SHANGHAI BIOTROY BIOTECHNIQUE, published 2023):
Changes are numbered by the printed parent chain. One block for each binder: values may come before it. No end group written: not given here.

Assays:
[1] = biological target: T1, human SEMG2 full-length protein (human, UniProt Q02383 24-582, limits assumed); experiment: ELISA (FIG. 21B-D)
T1 construct: also called SEMG2 protein; semenogelin 2
T1 sequence: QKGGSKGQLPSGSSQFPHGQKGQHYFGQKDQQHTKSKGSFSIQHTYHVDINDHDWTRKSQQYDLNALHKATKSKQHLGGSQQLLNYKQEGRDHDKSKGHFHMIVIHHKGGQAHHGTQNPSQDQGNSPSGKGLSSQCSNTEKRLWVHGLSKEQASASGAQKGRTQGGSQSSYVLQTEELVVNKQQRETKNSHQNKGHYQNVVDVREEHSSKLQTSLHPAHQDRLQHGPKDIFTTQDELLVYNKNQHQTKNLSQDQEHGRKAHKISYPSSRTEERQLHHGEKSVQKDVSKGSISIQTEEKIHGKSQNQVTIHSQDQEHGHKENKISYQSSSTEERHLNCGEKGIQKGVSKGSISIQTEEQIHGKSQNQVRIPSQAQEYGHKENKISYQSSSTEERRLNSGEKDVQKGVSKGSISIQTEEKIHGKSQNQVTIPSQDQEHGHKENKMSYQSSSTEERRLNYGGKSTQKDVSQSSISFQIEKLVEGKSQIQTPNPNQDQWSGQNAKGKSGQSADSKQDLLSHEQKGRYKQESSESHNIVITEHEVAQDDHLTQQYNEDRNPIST

[2] = biological target: T2, BSA-conjugated human SEMG2 (497-509) polypeptide (human, also: coupled to BSA, site not given here); experiment: ELISA (FIG. 21B-D)
T2 peptide: QIEKLVEGKSQIQ

[3] = biological target: T2, BSA-conjugated human SEMG2 (497-509) …; experiment: ELISA on BSA-S2 (497-509); curve without upper plateau; the EC50 table prints no unit, the axis is log (antibody concentration, nM)
[4] = biological target: T1, human SEMG2 full-length protein; experiment: ELISA on SEMG2; the EC50 table prints no unit, the axis is log (antibody concentration, nM)
[5] = biological target: T3, human CD27 (HA-tagged, expressed in HEK293 cells) (human, UniProt P26842 20-260, limits assumed); experiment: co-immunoprecipitation, HEK293 co-transfection
T3 construct: Plasmid printed as 'pcDNA3-HA-CD2'; not shown: HA tag
T3 sequence (looked up): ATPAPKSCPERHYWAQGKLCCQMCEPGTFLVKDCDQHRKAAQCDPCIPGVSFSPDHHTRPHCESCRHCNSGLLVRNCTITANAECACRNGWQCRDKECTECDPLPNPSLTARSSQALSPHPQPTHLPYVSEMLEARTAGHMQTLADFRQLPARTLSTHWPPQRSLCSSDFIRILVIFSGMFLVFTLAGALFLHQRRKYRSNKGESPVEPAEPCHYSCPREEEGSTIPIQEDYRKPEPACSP
Method: In co-immunoprecipitation experiment, cells were lysed in IP buffer (Thermo Scientific) and Roche complete protease inhibitor for 10 minutes, followed by the addition of benzonase (sigma) for 25 minutes at room temperature. The lysate was then centrifuged at 15,000 rpm at 4° C. to remove the precipitate. The supernatant was then incubated with primary antibody slowly rotated overnight at 4° C., followed by the addition of protein A or protein G dynabeads and incubated at 4° C. for 2 hours, washed for 4 times in PBST (PBS with 0.01% Tween 20), eluted with 50 mM DTT in SDS sample buffer for 10 minutes at 100° C., separated with SDS, and immunoblotted as previously described.
To further confirm which part of SEMG-2 binds to CD27, fragments of SEMG2 protein were designed. The amino acid sequence of full-length SEMG2 protein (SEQ ID NO:1) was divided into 6 segments of sequences, fused with GFP and named as SEMG2-P1, SEMG2-P2, SEMG2-P3, SEMG2-P4, SEMG2-P5 and SEMG2-P6 (See Table 1 for specific sequences, with corresponding abbreviation as P1-P6 respectively). Plasmids expressing these amino acid sequences were co-transfected with CD27 into HEK293 cells, and co-immunoprecipitation experiments were performed to identify the main fragment of SEMG2 that binds to CD27.

[6] = biological target: T4, SEMG2(563-574) fragment (human); experiment: ELISA, immobilized antigen SEMG2 (563-574)
T4 peptide: VAQDDHLTQQYN
Description: (§1) To clearly distinguish the binding epitopes of blocking antibodies (i.e., antibodies that can inhibit the binding between SEMG2 and CD27) and non-blocking antibodies, a corresponding ELISA analysis method was established. […] Anti-mouse or anti-rabbit secondary antibodies were then used to detect the corresponding bound antibodies.

[7] = biological target: T5, QIEKLVEAKSQIQ; experiment: ELISA, immobilized peptide QIEKLVEAKSQIQ
T5 construct: member of the group m41; position 504 is glycine in SEMG2 and the sheet prints alanine there
T5 peptide: QIEKLVEAKSQIQ
Description: (§2) FIG. 20 depicts the value detected by ELISA, i.e., OD₄₅₀ absorbance. […] This experiment is used to determine the precise amino acid epitopes that different monoclonal antibodies bind to, and the relative importance of each amino acid to the binding antibody.

[8] = biological target: T6, QIEKLVEGKSAIQ (not fully specified); experiment: ELISA, immobilized peptide QIEKLVEGKSAIQ
T6 construct: alanine at this position
T6 peptide: QIEKLVEGKSAIQ
Description: as §2

[9] = biological target: T7, AIEKLVEGKSQIQ (not fully specified); experiment: ELISA, immobilized peptide AIEKLVEGKSQIQ
T7 construct: member of the group m41; the text speaks of glycine substitution, the sheet prints alanine
T7 peptide: AIEKLVEGKSQIQ
Description: as §2

[10] = biological target: T1, human SEMG2 full-length protein; experiment: ELISA, plate coated with SEMG2 protein, anti-mouse secondary antibody; the EC50 table prints no unit, the axis is log (antibody concentration, nM)
[11] = biological target: T8, SEMG2(442-453) fragment (human); experiment: ELISA, immobilized antigen SEMG2 (442-453)
T8 peptide: IHGKSQNQVTIP
Description: as §1

[12] = biological target: T9, QIEKLVEGKSQAQ (not fully specified); experiment: ELISA, immobilized peptide QIEKLVEGKSQAQ
T9 construct: member of the group m41; the text speaks of glycine substitution, the sheet prints alanine
T9 peptide: QIEKLVEGKSQAQ
Description: as §2

[13] = biological target: T10, QIEKLVEGKAQIQ (not fully specified); experiment: ELISA, immobilized peptide QIEKLVEGKAQIQ
T10 construct: alanine at this position
T10 peptide: QIEKLVEGKAQIQ
Description: as §2

[14] = biological target: T11, QIEKLVEGKSQIA (not fully specified); experiment: ELISA, immobilized peptide QIEKLVEGKSQIA
T11 construct: alanine at this position
T11 peptide: QIEKLVEGKSQIA
Description: as §2

[15] = biological target: T12, QIEKAVEGKSQIQ (not fully specified); experiment: ELISA, immobilized peptide QIEKAVEGKSQIQ
T12 construct: alanine at this position
T12 peptide: QIEKAVEGKSQIQ
Description: as §2

[16] = biological target: T13, SEMG2(497-509) polypeptide QIEKLVEGKSQIQ (human); experiment: ELISA, immobilized peptide QIEKLVEGKSQIQ
T13 peptide: QIEKLVEGKSQIQ
Description: as §2

[17] = biological target: T14, QIEKLVAGKSQIQ (not fully specified); experiment: ELISA, immobilized peptide QIEKLVAGKSQIQ
T14 construct: member of the group m41; the text speaks of glycine substitution, the sheet prints alanine
T14 peptide: QIEKLVAGKSQIQ
Description: as §2
To further precisely define the exact epitopes (specific to the level of single amino acid) to which blocking antibodies MM02, MM05, MM07, MM08, MM13, MM14 bind, corresponding ELISA analysis method was established. […] Anti-mouse or anti-rabbit secondary antibodies were then used to detect the corresponding bound antibodies.

[18] = biological target: T15, QIEKLVEGASQIQ (not fully specified); experiment: ELISA, immobilized peptide QIEKLVEGASQIQ
T15 construct: member of the group m41; the text speaks of glycine substitution, the sheet prints alanine
T15 peptide: QIEKLVEGASQIQ
Description: as §2

[19] = biological target: T1, human SEMG2 full-length protein; experiment: ELISA, immobilized antigen SEMG2 (1-582)
Description: as §1

[20] = biological target: T16, QIAKLVEGKSQIQ (not fully specified); experiment: ELISA, immobilized peptide QIAKLVEGKSQIQ
T16 construct: member of the group m41; the text speaks of glycine substitution, the sheet prints alanine
T16 peptide: QIAKLVEGKSQIQ

[21] = biological target: T17, QIEKLAEGKSQIQ (not fully specified); experiment: ELISA, immobilized peptide QIEKLAEGKSQIQ
T17 construct: member of the group m41; the text speaks of glycine substitution, the sheet prints alanine
T17 peptide: QIEKLAEGKSQIQ
Description: as §2

[22] = biological target: T1, human SEMG2 full-length protein; experiment: biolayer interferometry (ForteBio Blitz or Gator)
Method: The equilibrium dissociation constant (KD) of the antibody of the present invention binding to human SEMG2 was determined by biolayer interferometry (ForteBio Bltz or Gator instrument). […] 100 μl of SD buffer, antibody and SEMG2 were added to a 96-well black polystyrene half area microplate, respectively. Select the sensor location based on the sample location layout. KD values were analyzed using molecular interaction analysis software. In the experiments of the assays, the affinity constants of murine monoclonal antibodies and human antibodies H88-67, H88-93 and H88-96 are shown in Table 8, and the affinity and dissociation curves of SEMG2 and corresponding proteins are shown in FIG. 25.

[23] = biological target: T18, QIEALVEGKSQIQ (not fully specified); experiment: ELISA, immobilized peptide QIEALVEGKSQIQ
T18 construct: member of the group m41; the text speaks of glycine substitution, the sheet prints alanine
T18 peptide: QIEALVEGKSQIQ
Description: as §2

[24] = biological target: T13, SEMG2(497-509) polypeptide QIEKLVEGKSQIQ; experiment: ELISA, immobilized antigen SEMG2 (497-509)
Description: as §1

[25] = biological target: T19, SEMG2(354-403) fragment (human); experiment: ELISA, immobilized antigen SEMG2 (354-403)
T19 peptide: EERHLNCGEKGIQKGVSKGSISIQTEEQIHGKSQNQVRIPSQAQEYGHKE
Description: as §1

[26] = biological target: T20, QAEKLVEGKSQIQ (not fully specified); experiment: ELISA, immobilized peptide QAEKLVEGKSQIQ
T20 construct: member of the group m41; the text speaks of glycine substitution, the sheet prints alanine
T20 peptide: QAEKLVEGKSQIQ
Description: as §2

B1: 67-3-67-6 (antibody, V domains shown)
VH: QVQLLESGGGVVQPGRSLRLSCAASGFTFSSYAMHWVRQASGKGLEWVAVISYDGSNKYYADSVKGRFTISRDNSKNTLYLQMNSLRAEDTAVYYCARMDNHGSPDYWGQGTLVTVSS
VL: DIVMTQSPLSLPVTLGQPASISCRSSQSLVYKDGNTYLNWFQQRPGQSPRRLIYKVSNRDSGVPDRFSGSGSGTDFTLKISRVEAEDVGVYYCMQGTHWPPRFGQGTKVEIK
fold higher affinity than the parent antibody (H88-67) [1]: > 10 fold
fold higher affinity than the parent antibody (H88-67) [2]: > 10 fold
EC50 [3]: 12.6 nM
EC50 [4]: 0.313 nM

B2: 67-6-67-6 (antibody, V domains shown)
VH: B1 VH with N101G
VL: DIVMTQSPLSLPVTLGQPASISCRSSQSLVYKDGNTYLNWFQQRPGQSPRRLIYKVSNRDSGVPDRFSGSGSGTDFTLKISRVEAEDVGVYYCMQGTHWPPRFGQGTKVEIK
fold higher affinity than the parent antibody (H88-67) [1]: > 10 fold
fold higher affinity than the parent antibody (H88-67) [2]: > 10 fold
EC50 [3]: 38.5 nM
EC50 [4]: 0.619 nM

B3: SEMG2-P1 fused with GFP (other)
chain: GSFSIQHTYHVDINDHDWTRKSQQYDLNALHKATKSKQHLGGSQQLLNYKQEGRDHDKSKGHFHMIVIHHKGGQAHHGT
notes: not shown: GFP fusion partner
binding result [5]: no binding

B6: MM13 (antibody, V domains shown)
VH: EVQLQQSGAELVRSGASVKLSCTASGFNIKDYYMHWMKQRPEQGLEWIGWIDPENGDNEYAPKFQGKATMTADTSSNTAYLQLSSLTSEDTAVYYCNVGGAHYWGQGTTLTVSS
VL: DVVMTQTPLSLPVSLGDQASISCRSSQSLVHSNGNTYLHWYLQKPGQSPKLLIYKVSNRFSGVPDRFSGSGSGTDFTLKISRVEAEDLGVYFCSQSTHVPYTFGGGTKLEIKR
A450 absorbance [6]: 0.01
binding result [6]: no binding
OD450 absorbance [7]: 0.842
OD450 absorbance [8]: 1.19
OD450 absorbance [9]: 0.48
EC50 [10]: 0.382 nM
A450 absorbance [11]: 0.008
binding result [11]: no binding
OD450 absorbance [12]: 0.699
OD450 absorbance [13]: 0.211
OD450 absorbance [14]: 1.25
OD450 absorbance [15]: 0.049
OD450 absorbance [16]: 1.23
OD450 absorbance [17]: 0.738
OD450 absorbance [18]: 0.818
A450 absorbance [19]: 1.13
OD450 absorbance [20]: 0.67
OD450 absorbance [21]: 0.658
Kd [22]: 0.693 nM
OD450 absorbance [23]: 0.712
A450 absorbance [24]: 1.14
A450 absorbance [25]: 0.001
binding result [25]: no binding
OD450 absorbance [26]: 0.467

More lines, now with the values ahead:

binding result [6]: no binding
OD450 absorbance [7]: 0.47
OD450 absorbance [8]: 1.18
OD450 absorbance [9]: 0.813
EC50 [10]: 0.507 nM
A450 absorbance [11]: 0.007
binding result [11]: no binding
OD450 absorbance [12]: 0.588
OD450 absorbance [13]: 0.022
OD450 absorbance [14]: 1.23
OD450 absorbance [15]: 0.161
OD450 absorbance [16]: 1.17
OD450 absorbance [17]: 0.766
OD450 absorbance [18]: 0.621
A450 absorbance [19]: 1.12
OD450 absorbance [20]: 0.776
OD450 absorbance [21]: 0.804
Kd [22]: 1.44 nM
OD450 absorbance [23]: 0.777
A450 absorbance [24]: 1.11
A450 absorbance [25]: 0.003
binding result [25]: no binding
OD450 absorbance [26]: 0.54
B4: MM14 (antibody, IgG2b, V domains shown)
VH: QVQLKESGPGLVAPSQSLSITCTVSGFSLTSYAVSWVRQPPGKGLEWLGIIWGDGSTNYHSALISRLSISKDNSKSQVFLKLNSLQTDDTATYYCAKQERFSDGYYDGFAYWGQGTLVTVSA
VL: QIVLTQSPAIMSASPGEKVTITCSASSSVSYMHWFQQKPGTSPKLWIYSTSNLASGVPARFSGSGSGTSYSLTISRMEAEDAATYYCQQRSSYPFTFGSGTKLEIKR

binding result [5]: no binding
B5: SEMG2-P2 fused with GFP (other)
chain: QNPSQDQGNSPSGKGLSSQCSNTEKRLWVHGLSKEQASASGAQKGRTQGGSQSSYVLQTEELVVNKQQRETKNSHQNKGHYQNVVDVREEHSSKLQTSLHPAHQDRLQHGPKDIFTTQDELLVYNKNQHQTKNLSQDQEHGR
notes: not shown: GFP fusion partner
